Results from US20250154215A1, “PHARMACEUTICAL COMPOSITION FOR TREATING COLITIS OR COLORECTAL CANCER COMPRISING COLON-TARGETED S100A8/A9-DERIVED SPECIFIC PEPTIDE” (Industry-University Cooperation Foundation Hanyang …, priority 2023, published 2025).

Legend:
[1] = design: species or system BALB/c mice; conditions: mouse, in vivo
Experimental: FIGS. 12A-12E show biological effects of rCT-S100A8/9 in tumor-bearing mice. […] Each vertical bar represents the mean±SD of cell viability at each dose. Data is shown as the mean±SD of six experiments. […] HCT116 cells were injected subcutaneously into the flanks of BALB/c mice as described in the Methods section. Mice were administered one or two intraperitoneal doses and sacrificed on day 5. Their expression was assessed by IB in various organs of mice. WCLs were used for IB including αActin. Data is representative of four independent experiments with similar results. […] E-cadherin, N-cadherin, and β-catenin staining of the tumors. […] Mice were immunized by each route (i.v. or i.p.) every 3 days, and blood was collected on day 40. IgG levels specific for rCT-S100A8/9 or ovalbumin (OVA) were measured using ELISA. Values represent the mean optical density (OD) and standard deviation at 450 nm. Each group included five mice. […] Serum cytokine levels were measured 30 days after administration. […]
A major concern with protein therapeutics derived from endogenous human proteins is that they may induce strong anti-therapeutic antibody responses and stimulate undesirable immune responses. […] Therefore, the immunogenicity of rCT-S100A8/A9 was assessed by measuring the production of anti-rCT-S100A8/A9 antibodies in mice immunized with the peptide according to the present invention. […]

[2] = Colon targeting of Cy5.5-conjugated protein in DSS-induced acute colitis mice (FACS); conditions: mouse, in vivo, ip
Experimental: (§1) FIGS. 6A-6D show the effect of rCT-S100A8/A9 peptide on colon targeting. […] Mice were exposed to 3% DSS for six days and evaluated on day 6 (left). For IB with αITGA6, αITGB1, or αActin, multiple organ harvests were used and ITGA6+ or ITGB1+ cell numbers were analyzed through FACS. […] Intraperitoneal administration of rCT-S100A8/9 conjugated with Cy5.5 for one hour and colon harvest. Colon harvests were used for IB including αITGA6, αITGB1, or αActin and ITGA6+ or ITGB1+ cell numbers were analyzed through FACS. […] Mice were treated with 3% DSS for six days and administered 1, 2, or 3 doses of Texas Red conjugated with rCT-S100A8/9. Colons were harvested in a time-dependent manner and analyzed for Texas Red+ cell numbers through FACS. Data is representative of three independent experiments with similar results. Data is shown as the mean±SD of three experiments;
Fourth, to further investigate the physiological significance of rCT-S100A8/A9 in inflammatory colitis, a DSS-induced colitis mouse model was used (FIG. 6). […] Next, to evaluate the specificity of rCT-S100A8/A9, ITGA6- or ITGB1-knockdown mice were generated by sh-lentivirus transduction. […] Finally, the pharmacodynamics of rCT-S100A8/A9 were evaluated, and according to the FACS analysis, 50% of the rCT-S100A8/A9 was retained in the colon when administered for three consecutive days to the mice with DSS-induced acute colitis (FIG. 6D).

[3] = design: species or system mice; conditions: mouse, in vivo, ip, 1 mg/kg
Experimental: Female C57BL/6 mice with body weight of 16 to 18 g were used for PK studies. S100A8/A9 peptide or rCT-S100A8/A9 protein (1 mg/kg) was administered to the mice by intraperitoneal injection. Whole blood samples ([…]) were collected serially from the orbital vein at 0.17, 0.5, 1, 2, 4, and 6 hours after drug administration. Blood samples were centrifuged at 12,000 rpm for five minutes at 4° C., and plasma was collected. To a 10 μL plasma sample, 20 μL of 0.1% formic acid in acetonitrile was added along with amlodipine, which was an internal standard (IS), at a concentration of 500 ng/mL, and the resulting mixture was vortexed. Samples were then centrifuged at 13,200 rpm for five minutes, and 10 μL aliquots were injected for LC-MS/MS analysis.

[4] = format: in vitro ADME; conditions: human, 0.5 h
Experimental: Human plasma of each culture tube treated with S100A8/A9 peptide (10 μM) or rCT-S100A8/A9 protein (10 μg/mL) was incubated at 37° C. for 0, 30, and 120 minutes, respectively. At the designated time, an acetonitrile internal standard solution of chlorpropamide was added to each culture tube, and the resulting mixture was shaken with a vortex mixer for five minutes and centrifuged for additional five minutes (14,000 rpm, 4° C.). The supernatant was then injected into an LC-MS/MS system to analyze the plasma stability of the tested substances.

[5] = design: species or system mice; conditions: mouse, in vivo
Experimental: as §1
S100A8 or S100A9 peptides or rCT-S100A8/9 was conjugated to Texas Red using the Texas Red® Conjugation Kit (Fast)-Lightning-Link (Abcam) to quantitatively measure cellular uptake in macrophages and pharmacodynamics in a colitis model. Cells were washed thoroughly and quickly with pulse spins and immediately acquired for analysis on FACSCalibur (BD Biosciences, San Jose, CA, USA). Data was plotted using CellQuest software (BD Biosciences) and analyzed using FlowJo software (Tree Star, Ashland, OR, USA). […]

B1: TWYKIAFQRNRKTWYKIAFQRNRKTWYKIAFQRNRKTWYKIAFQRNRKTWYKIAFQRNRKGGFLVIKGGAHKSHKGGITIITFGGGHHGGFLVIKGGAHKSHKGGITIITFGGGHHGGFLVIKGGAHKSHKGGITIITFGGGHHGG (protein)
chain: TWYKIAFQRNRKTWYKIAFQRNRKTWYKIAFQRNRKTWYKIAFQRNRKTWYKIAFQRNRKGGFLVIKGGAHKSHKGGITIITFGGGHHGGFLVIKGGAHKSHKGGITIITFGGGHHGGFLVIKGGAHKSHKGGITIITFGGGHHGG
modifications: N-terminal 6xHis tag
[1]
  production of specific anti-rCT-S100A8/A9 antibodies: negligible compared to that induced by ovalbumin
[2]
  tissue targeting: specifically targeted the colon tissues of the mice with acute colitis
[3]
  AUC values and half-life: well maintained in the blood at effective drug concentrations
[4]
  plasma stability, remaining: 100%
[5]
  retained in the colon: 50%
